Data taken from PMC11544220.

Molecular target: Mycobacterium tuberculosis dUTPase lacking the mycobacteria-specific loop A133-S137 (MtDUT^Δloop) (Mycobacterium tuberculosis) (UniProt P9WNS5)
Experiment: crystal structure

Mycobacterium tuberculosis dUTPase lacking the mycobacteria-specific loop A133-S137 (MtDUT^Δloop) (from UniProt P9WNS5 1-154) (enzyme)
stoichiometry N (subunits in the oligomer): 3
